Assay results from patent publication US20210171593A1.

Columns and labels:
[1] = biological target: CD47 on the surface of tumor cells (Raji cells, Jurkat cells, A549 cells) (human) (UniProt Q08722); test: flow cytometry on Jurkat cells
[2] = biological target: CD47 on the surface of tumor cells (Raji cells, Jurkat cells, A549 cells) (human) (UniProt Q08722); test: flow cytometry on A549 cells
[3] = biological target: Biotin-Fc-CD47 (Homo sapiens (Human)) (UniProt Q08722); test: competition ELISA: blocks Biotin-Fc-CD47 binding to coated SIRPα-His
[4] = biological target: CD47 on the surface of tumor cells (Raji cells, Jurkat cells, A549 cells) (human) (UniProt Q08722); test: flow cytometry on Raji cells
[5] = biological target: CD47-FITC (Homo sapiens (Human)) (UniProt Q08722); test: flow cytometry of the wild domain control with the same gate as the library panel above it (CD47-FITC in the text, x axis printed APC-A), first panel, under the 3% panel
[6] = biological target: CD47-FITC (Homo sapiens (Human)) (UniProt Q08722); test: flow cytometry of the wild domain control with the same gate as the library panel above it (CD47-FITC in the text, x axis printed APC-A), third panel, under the 12.5% panel
[7] = biological target: CD47-FITC (Homo sapiens (Human)) (UniProt Q08722); test: flow cytometry of the wild domain control with the same gate as the library panel above it (CD47-FITC in the text, x axis printed APC-A), second panel, under the 4.9% panel

Molecule	EC50 [1] [µg/mL]	maximum fluorescence intensity [1]	EC50 [2] [µg/mL]	maximum fluorescence intensity [2]	IC50 [3] [µg/mL]	EC50 [4] [µg/mL]	maximum fluorescence intensity [4]	percent of cells in gate P2 [5] [%]	percent of cells in gate P2 [6] [%]	percent of cells in gate P2 [7] [%]
TTI-621 (Fc fusion)	0.0539	3000	1	60	494	0.0404	600	–	–	–
Wild domain control (receptor, part only; not given: display vector transmembrane region, not shown: another chain or arm of the molecule; large carriers; small tags and cut ends, displayed on the CHO cell surface through the pTM transmembrane region (no letters given); the pTM signal peptide is left off as cleaved) ELQVIQPDKSVLVAAGETATLRCTATSLIPVGPIQWFRGAGPGRELIYNQKEGHFPRVTTVSDLTKRNNMDFSIRIGNITPADAGTYYCVKFRKGSPDDVEFKSGAGTELSVRAKPS	–	–	–	–	–	–	–	1.3	0	0
